# In US10973840B2, “Methods of sensitizing tumor cells to weak base chemotherapeutic drugs” (SOCPRA SCIENCES SANTÉ ET HUMAINES S.E.C., priority 2017, dated 2021):
# B1: TKAESAWLFRMWYNFDHNYLKPLLTHSGPPLTTTLPACCGPIARCLTSPQAYENQEQLKDDD (protein)
# chain: TKAESAWLFRMWYNFDHNYLKPLLTHSGPPLTTTLPACCGPIARCLTSPQAYENQEQLKDDD
# notes: NHE6 cytoplasmic tail fragment 527-588, expressed in cells from a plasmid
# Tests used:
# [1] = test system: HT-1080 overexpressing NHE6^527-588 peptide; test: MTT cell viability assay in HT-1080 expressing NHE6^527-588 or scrambled peptide; type: cell-based, human; settings: HT-1080, overexpression of the fragment
# Description: peGFP-N3-NHE6 was generously provided by Hiroshi Kanazawa (Osaka University, Japan). pcDNA3-HA/NHE6 was constructed from peGFP-N3-NHE6. For this, the entire NHE6 coding sequence was excised with BamHI and EcoRI restriction enzymes and cloned in pcDNA3-HA vector. pcDNA3-HA/NHE6^527-588 was designed from pcDNA3-HA/NHE6 using the following primers: […]
# HT-1080 cells were stably transfected with Polyethylenimine (PEI, MirusBio) and positive cells were selected with Geneticin™ (G418) at 400 μg/mL. In the case of MDA-MB-231 cells, plasmids were transfected using Lipofectamine™ 2000 ([…]) and G418 was added to cell cultures at a concentration of 2 mg/mL.
# Cells (5×10^3) were cultured in 96-well plates and pre-incubated under 21% O2 or 1% O2 for 4 h following the addition of drugs for 72 h. Cell viability was measured using the 3-(4,5-dimethylthiazol-2-yl)-2,5-diphenyltetrazolium bromide (MTT) dye (Life Technologies) according to manufacturer's instructions. Because hypoxic conditions may affect the reduction of MTT to formazan, incubation of all cell cultures with MTT were performed under normoxic conditions. Each experiment was performed in triplicate and at least three independent experiments were performed. Log-scale dose-response data were plotted on a graph and a three-parameter non-linear regression was applied to determine IC50 values. For calculation of the IC50s, both normoxic and hypoxic drug-treated samples were normalized with their untreated counterpart.
# The middle portion (position 527-588) of the NHE6 cytoplasmic tail has previously been reported to interact with RACK1^31. Stable HT-1080 cells expressing the NHE6^527-588 fragment or a scrambled counterpart were generated.
# HT-1080 cells [2] = test: Intracellular localization of Dox by confocal live-cell imaging, HT-1080; type: cell-based, human; settings: HT-1080, expression of the peptide, 1% O2, 4 h
# Description: Cells were cultured in 25 mm-diameter glass coverslips (Thermo Fisher Scientific) and incubated under various conditions (as indicated in the FIG. legends). Cells were then incubated for 2 h in a medium containing Dox (2 μM). After the incubation period, cells were washed to remove excess Dox and left in drug-free media for 10 min. […] Coverslips were mounted on glass slides and placed on a 37° C. warmed stage of an Olympus Fluoview™ FV1000 (Olympus, Tokyo, Japan) confocal laser scanning microscope. Dox was excited with a green helium neon laser (543 nm) and emitted fluorescence intensity was measured. Images were acquired on the same day, typically from 10-20 cells of similar size from each experimental condition, using identical instrument settings.
# HT-1080 cells [3] = test: Intracellular pH measurement (HPTS/SNARF-1) by confocal microscopy, HT-1080; type: cell-based, human; settings: HT-1080, expression of the peptide, 1% O2, 4 h
# Description: The pH sensing ratiometric dyes SNARF-1 and HPTS (Life Technologies) were used simultaneously for pH measurement of both cytoplasmic (C-SNARF-1) and endosomal/lysosomal (HPTS) compartments as previously described^30. Briefly, cells were cultured in 35 mm petri dishes (BD Biosciences) and used at 50% confluence. For endocytic labeling, cells were incubated overnight with HPTS (1 mM), washed, followed by a 20-min incubation with SNARF-1 (5 μM) to label the cytoplasmic compartment. Living cells were analyzed using an Olympus Fluoview™ FV1000 confocal microscope. Fluorescence emissions of both pH-sensing probes were recorded and subsequently analyzed as described^30.
# NHE6 = NHE6 localization (cell-surface biotinylation, EEA1 immunofluorescence) in HT-1080; type: cell-based, human; settings: HT-1080, expression of the peptide, 1% O2, 4 h
# Description: Biotinylation steps were performed at […] Cells were grown on circular 15-mm diameter glass coverslips (Thermo Fisher Scientific) and incubated at 21% or 1% O2. Cells were then washed with PBS containing 1 mM CaCl2 and 0.5 mM MgCl2 (PBSCM) and incubated for 5 min with 0.3 mg/ml of EZ-Link Sulfo-NHS-SS-Biotin (Pierce) in PBSCM. Unreacted biotin was quenched using 100 mM glycine. Cells were fixed for 10 min at room temperature using 1% PFA in PBS. Prior to staining, cells were blocked with 5% of BSA for 1 h at room temperature. Biotinylated cells were stained with 5 μg/ml Streptavidin Texas Red (Invitrogen) for 1 h at 4° C. Coverslips were washed and mounted on a microscope slide using Vectashield mounting media (Vector labs).
# Cultured cells were fixed with 1% PFA for 10 min at room temperature, permeabilized with saponin (0.05% in PBS) for 20 min, and blocked with 2% BSA in PBS for 30 min. Cells were then incubated with the appropriate primary and secondary antibodies as follows: anti-EEA1 (1/500), anti-Rab7 (1/500) and fluorophore-conjugated secondary antibodies (1/1000). Images were recorded using an Olympus Fluoview™ FV1000 confocal microscope using a 63× oil immersion objective.
# NHE6-RACK1 interaction = test: Co-immunoprecipitation of NHE6 with RACK1 in HT-1080; type: cell-based, human; settings: HT-1080, ectopic expression of the sequence, 1% O2, 4 h
# Description: Cells were lysed on ice in NP-40-containing buffer (50 mM Tris-HCl pH 8.0, 150 mM NaCl, 1% NP-40, 5 mM EDTA, phosphatase and protease inhibitors). Cell lysates were centrifuged at 13,000 rpm at 4° C. and protein concentration determined using the BCA protein assay (Thermo Fisher Scientific). After a pre-clearing step with protein A/G-agarose beads (GE Healthcare), protein complexes were immunoprecipitated overnight at 4° C. Samples were incubated in SDS-loading buffer for 30 minutes at room temperature to avoid transmembrane protein aggregates upon heating in a boiling water bath. Proteins were separated by SDS-PAGE electrophoresis, transferred to a PVDF membrane and immunoblotting was performed as described, using anti-NHE6 (1:1000), anti-NHE9 (1:1000) anti-RACK1 (1:2000), anti-tubulin (1:5000), anti-actin (1:5000) anti-HA (1:1000), anti-PKC (1:200), anti-phospho PKC substrate (1:1000), anti-LAMP2 (1:200), anti-P-glycoprotein (1:200) and HRP-conjugated secondary antibodies (1/10 000)^66.
# HT-1080 tumor xenografts = test: Chorioallantoic membrane (CAM) xenograft assay, HT-1080; type: in vivo, chick embryo; settings: NHE6^527-588-overexpressing HT-1080 xenografts on CAM, 0.5 μM Dox
# Description: (§1) Fertilized eggs from white leghorn chicken were obtained from Public Health Agency of Canada (Nepean, ON). Ethics approval was obtained from the Ethics Committee on Animal Research of the University of Sherbrooke and all experimental procedures involving embryos were conducted in accordance with the regulations of the Canadian Council on Animal Care. Eggs were incubated in an Ova-Easy egg incubator (Brinsea) at 37° C. with 60% humidity. At Day 3, eggs were cracked as described^67. At Day 9, HT-1080 and MDA-MB-231 cell suspensions (1×10^6 and 2×10^6 cells, respectively) were mixed (1:1) with growth factor reduced Matrigel (BD Biosciences) in a total volume of 20 μl. Cell grafts were placed on top of the CAM and eggs were returned to the incubator for 96 h until Day 13 (n>6 chick embryos per cell line). When mentioned, 50 μl of Dox were added topically to the formed tumors (Day 13 after tumor cell grafting). At Day 16, chick embryos were euthanatized by decapitation. Tumors were removed and tumor volumes were calculated using the formula: (Dd^2/3). For RNA quantification, tumors were immediately snap-frozen in liquid nitrogen and kept at −80° C. until RNA extraction using the Trizol reagent.
# (§2) To determine whether these observations were of relevance to tumor therapy in vivo, the inventors used an ex ovo chorioallantoic membrane (CAM) xenograft model in live chicken embryos^40. MDA-MB-231 or HT-1080 cells, or cells expressing either the NHE6^527-588 competing fragment or its scrambled counterpart were inoculated onto the CAM of 9-day-old chick embryos. After allowing 3 days for cells to engraft, tumors were treated with Doxorubicin or PBS. Four days later, chick embryos were euthanized, and tumors were removed for analysis (FIG. 10A). To first ascertain that tumors implanted in CAM developed hypoxia, total mRNA was extracted from tumors generated by untransfected HT-1080 cells and gene expression of the hypoxic markers CA9, GLUT1 and MCT4 was measured by qPCR. […]
# [4] = test system: MDA-MB-231 tumor xenografts; test: Chorioallantoic membrane (CAM) xenograft assay, MDA-MB-231; type: in vivo, chick embryo; settings: NHE6^527-588-overexpressing MDA-MB-231 xenografts on CAM, 1 μM Dox
# Description: as §1, §2
molecule,measurement,setting,value
B1,increase in drug (Dox) sensitivity,[1]; hypoxia,2.8 fold
same,sensitivity of the cells to Dox,[1]; normoxic conditions,did not change
same,hypoxia-induced diminution in nuclear Dox and Dox accumulation within endosomes,HT-1080 cells [2],greatly impaired
same,hypoxia-induced intravesicular hyperacidification,HT-1080 cells [3],greatly impaired
same,hypoxia-induced NHE6 relocalization from endosomes to the plasma membrane,NHE6,greatly impaired
same,hypoxia-induced interaction of NHE6 with RACK1,NHE6-RACK1 interaction,prevented
same,tumor volume compared to xenografts overexpressing a control peptide,HT-1080 tumor xenografts,small but significant decrease in tumor volume
same,tumor volume compared to xenografts overexpressing a control peptide,[4],small but significant decrease in tumor volume
